Results from the Human Domainome abundance scans (Beltran et al. 2025).
± gives the uncertainty stated by the source.

B1: Receptor-interacting serine/threonine-protein kinase 2, residues 438 to 518; numbered along this chain, O43353 (parent)
chain: QWIQSKREDIVNQMTEACLNQSLDALLSRDLIMKEDYELVSTKPTRTSKVRQLLDTTDIQGEEFAKVIVQKLKDNKQMGLQ

Variants of: B1
Experiment: abundance fitness (aPCA) (normalised: wild type 0, dead -1); higher = more abundant; growth selection in yeast, the domain comes from the species named
Conditions: Homo sapiens

Variant	abundance fitness
QWIFSKREDIVNQMTEACLNQSLDALLSRDLIMKEDYELVSTKPTRTSKVRQLLDTTDIQGEEFAKVIVQKLKDNKQMGLQ	-0.166 ± 0.15
QWIGSKREDIVNQMTEACLNQSLDALLSRDLIMKEDYELVSTKPTRTSKVRQLLDTTDIQGEEFAKVIVQKLKDNKQMGLQ	-0.685 ± 0.13
QWISSKREDIVNQMTEACLNQSLDALLSRDLIMKEDYELVSTKPTRTSKVRQLLDTTDIQGEEFAKVIVQKLKDNKQMGLQ	0.09 ± 0.15
QWIASKREDIVNQMTEACLNQSLDALLSRDLIMKEDYELVSTKPTRTSKVRQLLDTTDIQGEEFAKVIVQKLKDNKQMGLQ	-0.078 ± 0.12
QWITSKREDIVNQMTEACLNQSLDALLSRDLIMKEDYELVSTKPTRTSKVRQLLDTTDIQGEEFAKVIVQKLKDNKQMGLQ	0.458 ± 0.5
QWIMSKREDIVNQMTEACLNQSLDALLSRDLIMKEDYELVSTKPTRTSKVRQLLDTTDIQGEEFAKVIVQKLKDNKQMGLQ	0.279 ± 0.29
QWIRSKREDIVNQMTEACLNQSLDALLSRDLIMKEDYELVSTKPTRTSKVRQLLDTTDIQGEEFAKVIVQKLKDNKQMGLQ	-0.045 ± 0.1
QWIPSKREDIVNQMTEACLNQSLDALLSRDLIMKEDYELVSTKPTRTSKVRQLLDTTDIQGEEFAKVIVQKLKDNKQMGLQ	-0.923 ± 0.35
QWIVSKREDIVNQMTEACLNQSLDALLSRDLIMKEDYELVSTKPTRTSKVRQLLDTTDIQGEEFAKVIVQKLKDNKQMGLQ	-0.756 ± 0.34
QWIISKREDIVNQMTEACLNQSLDALLSRDLIMKEDYELVSTKPTRTSKVRQLLDTTDIQGEEFAKVIVQKLKDNKQMGLQ	0.135 ± 0.39
QWIQSKRGDIVNQMTEACLNQSLDALLSRDLIMKEDYELVSTKPTRTSKVRQLLDTTDIQGEEFAKVIVQKLKDNKQMGLQ	-0.29 ± 0.057
QWIQSKRADIVNQMTEACLNQSLDALLSRDLIMKEDYELVSTKPTRTSKVRQLLDTTDIQGEEFAKVIVQKLKDNKQMGLQ	-0.367 ± 0.076
QWIQSKRSDIVNQMTEACLNQSLDALLSRDLIMKEDYELVSTKPTRTSKVRQLLDTTDIQGEEFAKVIVQKLKDNKQMGLQ	-0.276 ± 0.068
QWIQSKRCDIVNQMTEACLNQSLDALLSRDLIMKEDYELVSTKPTRTSKVRQLLDTTDIQGEEFAKVIVQKLKDNKQMGLQ	-0.994 ± 0.41
QWIQSKRKDIVNQMTEACLNQSLDALLSRDLIMKEDYELVSTKPTRTSKVRQLLDTTDIQGEEFAKVIVQKLKDNKQMGLQ	-0.319 ± 0.23
QWIQSKRFDIVNQMTEACLNQSLDALLSRDLIMKEDYELVSTKPTRTSKVRQLLDTTDIQGEEFAKVIVQKLKDNKQMGLQ	-0.691 ± 0.32
QWIQSKRDDIVNQMTEACLNQSLDALLSRDLIMKEDYELVSTKPTRTSKVRQLLDTTDIQGEEFAKVIVQKLKDNKQMGLQ	0.031 ± 0.24
QWIQSKRPDIVNQMTEACLNQSLDALLSRDLIMKEDYELVSTKPTRTSKVRQLLDTTDIQGEEFAKVIVQKLKDNKQMGLQ	-0.527 ± 0.066
QWIQSKRMDIVNQMTEACLNQSLDALLSRDLIMKEDYELVSTKPTRTSKVRQLLDTTDIQGEEFAKVIVQKLKDNKQMGLQ	-0.272 ± 0.16
QWIQSKRIDIVNQMTEACLNQSLDALLSRDLIMKEDYELVSTKPTRTSKVRQLLDTTDIQGEEFAKVIVQKLKDNKQMGLQ	-0.768 ± 0.45
QWIQSKRLDIVNQMTEACLNQSLDALLSRDLIMKEDYELVSTKPTRTSKVRQLLDTTDIQGEEFAKVIVQKLKDNKQMGLQ	-0.507 ± 0.079
QWIQSKRQDIVNQMTEACLNQSLDALLSRDLIMKEDYELVSTKPTRTSKVRQLLDTTDIQGEEFAKVIVQKLKDNKQMGLQ	-0.569 ± 0.11
QWIQSKRTDIVNQMTEACLNQSLDALLSRDLIMKEDYELVSTKPTRTSKVRQLLDTTDIQGEEFAKVIVQKLKDNKQMGLQ	-0.209 ± 0.077

Variant	abundance fitness
QWIQSKRHDIVNQMTEACLNQSLDALLSRDLIMKEDYELVSTKPTRTSKVRQLLDTTDIQGEEFAKVIVQKLKDNKQMGLQ	-0.884 ± 0.28
QWIQSKRRDIVNQMTEACLNQSLDALLSRDLIMKEDYELVSTKPTRTSKVRQLLDTTDIQGEEFAKVIVQKLKDNKQMGLQ	-0.36 ± 0.055
QWIQSKGEDIVNQMTEACLNQSLDALLSRDLIMKEDYELVSTKPTRTSKVRQLLDTTDIQGEEFAKVIVQKLKDNKQMGLQ	-0.563 ± 0.079
QWIQSKVEDIVNQMTEACLNQSLDALLSRDLIMKEDYELVSTKPTRTSKVRQLLDTTDIQGEEFAKVIVQKLKDNKQMGLQ	-0.611 ± 0.085
QWIQSKWEDIVNQMTEACLNQSLDALLSRDLIMKEDYELVSTKPTRTSKVRQLLDTTDIQGEEFAKVIVQKLKDNKQMGLQ	-0.673 ± 0.12
QWIQSKIEDIVNQMTEACLNQSLDALLSRDLIMKEDYELVSTKPTRTSKVRQLLDTTDIQGEEFAKVIVQKLKDNKQMGLQ	-0.838 ± 0.38
QWIQSKLEDIVNQMTEACLNQSLDALLSRDLIMKEDYELVSTKPTRTSKVRQLLDTTDIQGEEFAKVIVQKLKDNKQMGLQ	-0.545 ± 0.085
QWIQSKKEDIVNQMTEACLNQSLDALLSRDLIMKEDYELVSTKPTRTSKVRQLLDTTDIQGEEFAKVIVQKLKDNKQMGLQ	0.032 ± 0.14
QWIQSKFEDIVNQMTEACLNQSLDALLSRDLIMKEDYELVSTKPTRTSKVRQLLDTTDIQGEEFAKVIVQKLKDNKQMGLQ	-0.027 ± 0.17
QWIQSKEEDIVNQMTEACLNQSLDALLSRDLIMKEDYELVSTKPTRTSKVRQLLDTTDIQGEEFAKVIVQKLKDNKQMGLQ	-0.42 ± 0.13
QWIQSKSEDIVNQMTEACLNQSLDALLSRDLIMKEDYELVSTKPTRTSKVRQLLDTTDIQGEEFAKVIVQKLKDNKQMGLQ	-0.419 ± 0.073
QWIQSKCEDIVNQMTEACLNQSLDALLSRDLIMKEDYELVSTKPTRTSKVRQLLDTTDIQGEEFAKVIVQKLKDNKQMGLQ	-1.04 ± 0.31
QWIQSKPEDIVNQMTEACLNQSLDALLSRDLIMKEDYELVSTKPTRTSKVRQLLDTTDIQGEEFAKVIVQKLKDNKQMGLQ	-0.956 ± 0.14
QWIQSKQEDIVNQMTEACLNQSLDALLSRDLIMKEDYELVSTKPTRTSKVRQLLDTTDIQGEEFAKVIVQKLKDNKQMGLQ	-0.463 ± 0.13
QWIQSKAEDIVNQMTEACLNQSLDALLSRDLIMKEDYELVSTKPTRTSKVRQLLDTTDIQGEEFAKVIVQKLKDNKQMGLQ	-0.334 ± 0.081
QWIQSKMEDIVNQMTEACLNQSLDALLSRDLIMKEDYELVSTKPTRTSKVRQLLDTTDIQGEEFAKVIVQKLKDNKQMGLQ	-1.09 ± 0.42
QWIQSKYEDIVNQMTEACLNQSLDALLSRDLIMKEDYELVSTKPTRTSKVRQLLDTTDIQGEEFAKVIVQKLKDNKQMGLQ	-0.501 ± 0.17
QWDQSKREDIVNQMTEACLNQSLDALLSRDLIMKEDYELVSTKPTRTSKVRQLLDTTDIQGEEFAKVIVQKLKDNKQMGLQ	-0.051 ± 0.34
QWKQSKREDIVNQMTEACLNQSLDALLSRDLIMKEDYELVSTKPTRTSKVRQLLDTTDIQGEEFAKVIVQKLKDNKQMGLQ	-0.975 ± 0.38
QWMQSKREDIVNQMTEACLNQSLDALLSRDLIMKEDYELVSTKPTRTSKVRQLLDTTDIQGEEFAKVIVQKLKDNKQMGLQ	-0.292 ± 0.17
QWTQSKREDIVNQMTEACLNQSLDALLSRDLIMKEDYELVSTKPTRTSKVRQLLDTTDIQGEEFAKVIVQKLKDNKQMGLQ	-0.745 ± 0.42
QWLQSKREDIVNQMTEACLNQSLDALLSRDLIMKEDYELVSTKPTRTSKVRQLLDTTDIQGEEFAKVIVQKLKDNKQMGLQ	-0.205 ± 0.091
QWFQSKREDIVNQMTEACLNQSLDALLSRDLIMKEDYELVSTKPTRTSKVRQLLDTTDIQGEEFAKVIVQKLKDNKQMGLQ	-0.771 ± 0.47

Variant	abundance fitness
QWPQSKREDIVNQMTEACLNQSLDALLSRDLIMKEDYELVSTKPTRTSKVRQLLDTTDIQGEEFAKVIVQKLKDNKQMGLQ	-0.194 ± 0.24
QWSQSKREDIVNQMTEACLNQSLDALLSRDLIMKEDYELVSTKPTRTSKVRQLLDTTDIQGEEFAKVIVQKLKDNKQMGLQ	-0.767 ± 0.22
QWGQSKREDIVNQMTEACLNQSLDALLSRDLIMKEDYELVSTKPTRTSKVRQLLDTTDIQGEEFAKVIVQKLKDNKQMGLQ	-0.87 ± 0.25
QWIQGKREDIVNQMTEACLNQSLDALLSRDLIMKEDYELVSTKPTRTSKVRQLLDTTDIQGEEFAKVIVQKLKDNKQMGLQ	-0.177 ± 0.24
QWIQKKREDIVNQMTEACLNQSLDALLSRDLIMKEDYELVSTKPTRTSKVRQLLDTTDIQGEEFAKVIVQKLKDNKQMGLQ	-0.171 ± 0.27
QWIQRKREDIVNQMTEACLNQSLDALLSRDLIMKEDYELVSTKPTRTSKVRQLLDTTDIQGEEFAKVIVQKLKDNKQMGLQ	-0.125 ± 0.16
QWIQTKREDIVNQMTEACLNQSLDALLSRDLIMKEDYELVSTKPTRTSKVRQLLDTTDIQGEEFAKVIVQKLKDNKQMGLQ	-0.315 ± 0.14
QWIQDKREDIVNQMTEACLNQSLDALLSRDLIMKEDYELVSTKPTRTSKVRQLLDTTDIQGEEFAKVIVQKLKDNKQMGLQ	0.224 ± 0.27
QWIQWKREDIVNQMTEACLNQSLDALLSRDLIMKEDYELVSTKPTRTSKVRQLLDTTDIQGEEFAKVIVQKLKDNKQMGLQ	-0.639 ± 0.46
QWIQVKREDIVNQMTEACLNQSLDALLSRDLIMKEDYELVSTKPTRTSKVRQLLDTTDIQGEEFAKVIVQKLKDNKQMGLQ	-0.384 ± 0.16
QWIQFKREDIVNQMTEACLNQSLDALLSRDLIMKEDYELVSTKPTRTSKVRQLLDTTDIQGEEFAKVIVQKLKDNKQMGLQ	-0.636 ± 0.43
QWIQEKREDIVNQMTEACLNQSLDALLSRDLIMKEDYELVSTKPTRTSKVRQLLDTTDIQGEEFAKVIVQKLKDNKQMGLQ	0.372 ± 0.27
QWIQLKREDIVNQMTEACLNQSLDALLSRDLIMKEDYELVSTKPTRTSKVRQLLDTTDIQGEEFAKVIVQKLKDNKQMGLQ	-0.216 ± 0.15
QWIQHKREDIVNQMTEACLNQSLDALLSRDLIMKEDYELVSTKPTRTSKVRQLLDTTDIQGEEFAKVIVQKLKDNKQMGLQ	-0.824 ± 0.36
QWIQQKREDIVNQMTEACLNQSLDALLSRDLIMKEDYELVSTKPTRTSKVRQLLDTTDIQGEEFAKVIVQKLKDNKQMGLQ	-0.088 ± 0.23
QWIQPKREDIVNQMTEACLNQSLDALLSRDLIMKEDYELVSTKPTRTSKVRQLLDTTDIQGEEFAKVIVQKLKDNKQMGLQ	-0.623 ± 0.15
QWIQSFREDIVNQMTEACLNQSLDALLSRDLIMKEDYELVSTKPTRTSKVRQLLDTTDIQGEEFAKVIVQKLKDNKQMGLQ	0.095 ± 0.44
QQIQSKREDIVNQMTEACLNQSLDALLSRDLIMKEDYELVSTKPTRTSKVRQLLDTTDIQGEEFAKVIVQKLKDNKQMGLQ	-0.411 ± 0.14
QVIQSKREDIVNQMTEACLNQSLDALLSRDLIMKEDYELVSTKPTRTSKVRQLLDTTDIQGEEFAKVIVQKLKDNKQMGLQ	-0.632 ± 0.1
QTIQSKREDIVNQMTEACLNQSLDALLSRDLIMKEDYELVSTKPTRTSKVRQLLDTTDIQGEEFAKVIVQKLKDNKQMGLQ	-0.609 ± 0.24
QRIQSKREDIVNQMTEACLNQSLDALLSRDLIMKEDYELVSTKPTRTSKVRQLLDTTDIQGEEFAKVIVQKLKDNKQMGLQ	-0.41 ± 0.088
QNIQSKREDIVNQMTEACLNQSLDALLSRDLIMKEDYELVSTKPTRTSKVRQLLDTTDIQGEEFAKVIVQKLKDNKQMGLQ	-0.196 ± 0.2
